Patent publication US20240034792A1 (HARBOUR BIOMED SHANGHAI, published 2024)
Where a chain is given by its changes, count along the chain named. Like-named read-outs stand apart in the source and are kept apart here.

B1: PR000677 (antibody, human IgG4 S228P, kappa, V domains shown)
VH: QVQLQQSGPGLVKPSQTLSLTCAISGDSVSSNSAAWNWIRQSPSRGLEWLGRTYYRSKWYSDYGISVNSRITVNPDTSKNLFSLQLNPVTPEDTAVYYCTRETHYYGSGSYLDYWSQGTLVTVSS
VL: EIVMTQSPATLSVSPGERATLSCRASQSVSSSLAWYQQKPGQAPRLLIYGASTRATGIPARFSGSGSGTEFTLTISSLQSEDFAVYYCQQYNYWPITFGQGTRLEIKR
notes: Fully human recombinant H2L2 antibody, human IgG4, kappa light chain; also called 4004_33B9E4
B2: PR000673 (antibody, human IgG4 S228P, kappa, V domains shown)
VH: QVQLVESGGGVVQPGRSLRLSCAASGFIFSNYGMHWVRQAPGKGLEWVAVIWYDGSKKYYGDSVKGRFTISRDNSKNTLYLQMNSLRDEDTAVYFCARNDDYWGQGTLVTVSS
VL: EIVLTQSPATLSFSPGERATLSCRASQSVSSDLAWYQQKPGQAPSLLIYDASNRATGIPARFSGSGSGTDFTLTISSLEPEDFAVYYCHQRNNWPLTFGGGTKVEIKR
notes: Fully human recombinant H2L2 antibody, human IgG4, kappa light chain; also called 4004_10H9A12
B3: PR000675 (antibody, human IgG4 S228P, kappa, V domains shown)
VH: EVQLLESGGGLVQPGGSLRLSCVDSGFTFSSYAMTWVRQAPGKGLEWVSGISGSGYSTYYADSVKGRFTISRDNSKKTLYLQMNSLRAEDTAVYYCAELSLDYWGQGTLVTVSS
VL: B2 VL with F13L, S31R, D32Y, S45R, I48M, Y49H, S52A, I58L, S63N, H89Q
notes: Fully human recombinant H2L2 antibody, human IgG4, kappa light chain; also called 4004_19G8F2
B4: PR000676 (antibody, human IgG4 S228P, kappa, V domains shown)
VH: QIQLVESGGGVVQPGRSLRLSCAASGFTLSSYGMHWVRQAPGKGLEWVAVILSDGSNKYYADSVKGRFTISRDNSKNTLYLQMNSLRAEDTAVYYCADLGGDVWGQGTTVTVSS
VL: B2 VL with F13L, D32Y, S45R, N53T, H89Q, N92S
notes: Fully human recombinant H2L2 antibody, human IgG4, kappa light chain; also called 4004_1A7A1
B5: PR000679 (antibody, human IgG4 S228P, kappa, V domains shown)
VH: QVQLVQSGTEVKKPGSSVKVSCKASGGTFSSYAISWVRQAPGQGLEWMGGIIPIFDTVSSAQKFQGRVTITADKSTSTAYMELFSLRSEDTAVYYCARSPPYSSNWYQYFQHWGQGTLVTVSS
VL: DIQMTQSPSTLSASVGDRVTITCRASQTISIWLAWYQQKPGKAPKLLIYKASSLESGVPSRFSGSGSGTEFTLTISSLQPDDFATYYCQQFNSYWTFGQGTKVEIKR
notes: Fully human recombinant H2L2 antibody, human IgG4, kappa light chain; also called 4004_6C11C6
B6: PR000674 (antibody, human IgG4 S228P, kappa, V domains shown)
VH: QVQLVESGGGVVQPGKSLRLSCTVSGLTFSDNGMHWVRQAPGRGLEWMSVIWYDGSKKYYADSVKGRFTISRDNSKNTLYLQMNNMRVEDTAVYYCATNSDYWGQGTLVTVSS
VL: EIVLTQSPATLSLSPGERATLSCRASQSVSSYLAWYQQKPGQAPRLLIYDTSKRATGIPARFSGSGSGTDFTLTISSLEPEDFAVYYCQQHNNWIFTFGPGTKVDIKR
notes: Fully human recombinant H2L2 antibody, human IgG4, kappa light chain; also called 4004_12H9C1
B7: PR005573 (antibody, human IgG1, V domains shown)
VH: EVQLVETGGGLIQPGGSLRLSCAASGFNVSSHYMSWVRQAPGKGREWVSIIDKAGSGYYAASVKGRFTISRDNSKNRLYLQMNSLRAEDTAMYYCARATEVREKNGYNYPFNYWGQGTLVTVSS
notes: no light chain; also called anti-PD1 PR002481R2M3_D1 HCAb hIgG1
B8: PR005584 (antibody, human IgG1, V domains shown)
VH: B7 VH with H32F, G57T, A61D, N105Q
notes: no light chain; also called anti-PD1 PR002481Com_30 HCAb hIgG1
B9: PR005574 (antibody, human IgG1, V domains shown)
VH: B7 VH with A61D, N105Q
notes: no light chain; also called anti-PD1 PR002481R2M1_F1 HCAb hIgG1
B10: PR005581 (antibody, human IgG1, V domains shown)
VH: B7 VH with H32F, G57T, A60G, N105Q
notes: no light chain; also called anti-PD1 PR002481R2M1_A1 HCAb hIgG1
B11: PR005582 (antibody, human IgG1, V domains shown)
VH: B7 VH with S30A, H32F, G57T, A60G, N105Q
notes: no light chain; also called anti-PD1 PR002481Com_28 HCAb hIgG1

Experiments:
[1] = biological target: T1, Human PD-1 expressed on CHO-K1 cells (CHO-K1/hPD-1) (human, UniProt Q15116 25-288); test: FACS, CHO-K1/hPD-1 cells
T1 construct: whole, on cells; also called CHO-K1 cells overexpressing human PD-1
Method: (§1) In order to investigate the in vitro binding activity of the PD-1 antigen-binding proteins to human/cynomolgus monkey PD-1, the binding assay at the cellular level was performed using a CHO-K1 cell strain overexpressing human or cynomolgus monkey PD-1 (CHO-K1/hPD-1 or CHO-K1/cyno PD-1, from GenScript). Briefly, the CHO-K1-hPD-1 cells were digested and resuspended in an F-12K complete medium, and the cell density was adjusted to 1×10⁶ cells/mL. The cells were seeded in a 96-well V-bottom plate (Corning, Cat#3894) at 100 μL/well, followed by the addition of the test antigen-binding proteins with concentrations 2-fold of final concentrations obtained by 5-fold gradient dilution were each added at 100 μL/well. The mixtures were well mixed. The maximum final concentration of the antigen-binding proteins was 100 nM or 300 nM. A total of 8-11 concentrations were set. hIgG was used as a control. The cells were incubated at 4° C. for 1 h away from light. Thereafter, the cells in each well were rinsed twice with 100 μL of pre-cooled PBS, and centrifuged at 500 g at 4° C. for 5 min, and then the supernatant was discarded. Then 100 μL of a fluorescent secondary antibody (goat anti-human IgG (H+L) secondary antibody, Alexa Fluor® 488 conjugate, Invitrogen, Cat #A11013, 1:1000) was added to each well. The plate was incubated away from light at 4° C. for 30 min. The cells in each well were rinsed twice with 200 μL of pre-cooled PBS, and centrifuged at 500 g at 4° C. for 5 min, and then the supernatant was discarded. Finally, the cells in each well were resuspended in 200 μL of pre-cooled PBS, and the fluorescence signal values were read using a BD FACS CANTOII.

[2] = biological target: T2, Cynomolgus monkey PD-1 expressed on CHO-K1 cells (CHO-K1/cyno PD-1) (cynomolgus monkey, UniProt B0LAJ3 25-288); test: FACS, CHO-K1/cyno PD-1 cells
T2 construct: also called CHO-K1 cells overexpressing cynomolgus monkey PD-1
Method: as §1

[3] = biological target: T3, Human PD-1-His protein (ACROBiosystems, # PD1-H5221) (human, UniProt Q15116 25-167); test: ELISA, plate-coated human PD-1-His
T3 construct: Bought reagent, coated on the ELISA plate; also called human PD-1 protein; human PD-1 antigen; not shown: His tag
Method: Human PD-1-His protein (ACROBiosystems, # PD1-H5221) was diluted to 2 μg/mL with PBS, added to a 96-well plate (Corning, cat#9018) at 100 μL/well, and incubated at 4° C. overnight. After the liquid was discarded, the plate was washed 3 times with PBST buffer (pH 7.4, containing 0.05% Tween-20), and 250 μL of 2% BSA blocking buffer was added. The plate was incubated at 37° C. for 1 h. The blocking buffer was discarded, and the plate was washed 3 times with PBST buffer (pH 7.4, containing 0.05% Tween-20). The test antigen-binding protein was 5-fold diluted in sequence at an initial concentration of 100 nM for a total of 8-10 concentration gradients, and added at 100 μL/well. The plate was incubated at 37° C. for 1 h. An isotype antibody was taken as a control. After the plate was washed 3 times with PBST buffer (pH 7.4, containing 0.05% Tween-20), a 4000-fold diluted goat anti-human HRP secondary antibody (Invitrogen, #A18805) was added. The plate was incubated away from light at 37° C. for 1 h. After the plate was washed 3 times with PBST buffer (pH 7.4, containing 0.05% Tween-20), TMB (Biopanda, # TMB-S-003) was added at 100 μL/well. The plate was left away from light at room temperature for about 5 min. The reactions were terminated by adding 50 μL of stop buffer (BBI life sciences, #E661006-0200) to each well, and the absorbance values at 450 nm (OD450) were measured using a microplate reader (PerkinElemer, #Enspire). The half maximal effective concentration (EC₅₀) was calculated from the measurement results.

[4] = biological target: T1, Human PD-1 expressed on CHO-K1 cells …; test: FACS blocking of biotin-labeled human PD-L1 binding to CHO-K1-hPD-1 cells
Method: (§2) Briefly, the CHO-K1-hPD-1 cells were digested and resuspended in an F-12K complete medium, and the cell density was adjusted to 1×10⁶ cells/mL. The cells were seeded in a 96-well V-bottom plate (Corning, Cat#3894) at 100 μL/well, followed by the addition of the test antigen-binding proteins with concentrations 2-fold of final concentrations obtained by 3-fold or 5-fold gradient dilution were each added at 100 μL/well. The mixtures were well mixed. The maximum final concentration of the antigen-binding proteins was 100 nM or 300 nM. A total of 8 concentrations were set. hIgG was used as a control. The cells were incubated at 4° C. for 1 h away from light. […] The cells were incubated at 4° C. away from light for 30 min. The cells in each well were rinsed twice with 100 μL of pre-cooled PBS, and centrifuged at 500 g at 4° C. for 5 min, and then the supernatant was discarded. A fluorescent secondary antibody (PE Streptavidin, BD, Cat# 554061, 1:200) was added at 100 μL/well, and the cells were incubated at 4° C. away from light for 30 min. The cells in each well were rinsed twice with 200 μL of pre-cooled PBS, and centrifuged at 500 g at 4° C. for 5 min, and then the supernatant was discarded. Finally, the cells in each well were resuspended in 200 μL of pre-cooled PBS, the fluorescence signal values were read using a BD FACS CANTOII, and the IC₅₀ values were calculated.

[5] = biological target: T1, Human PD-1 expressed on CHO-K1 cells …; test: FACS blocking of biotin-labeled human PD-L2 binding to CHO-K1-hPD-1 cells
Method: as §2

[6] = biological target: T1, Human PD-1 expressed on CHO-K1 cells …; test: FACS, CHO-K1/hPD-1 cells; remark: listed apart in the source

T3 sequence (Q15116 25-167 limits assumed): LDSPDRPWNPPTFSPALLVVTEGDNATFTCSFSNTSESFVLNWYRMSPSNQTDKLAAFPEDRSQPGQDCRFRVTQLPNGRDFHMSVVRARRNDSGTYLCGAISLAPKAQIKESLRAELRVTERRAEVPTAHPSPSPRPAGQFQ
T2 sequence (B0LAJ3 entry or part of it limits assumed): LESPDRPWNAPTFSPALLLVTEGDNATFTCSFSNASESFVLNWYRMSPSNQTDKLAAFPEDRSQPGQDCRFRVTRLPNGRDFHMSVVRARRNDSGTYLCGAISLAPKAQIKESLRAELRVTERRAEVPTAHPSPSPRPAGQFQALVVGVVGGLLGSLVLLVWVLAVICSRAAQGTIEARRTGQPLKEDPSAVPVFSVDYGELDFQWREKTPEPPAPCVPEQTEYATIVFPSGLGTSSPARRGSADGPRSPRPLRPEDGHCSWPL
T1 sequence (Q15116 25-288): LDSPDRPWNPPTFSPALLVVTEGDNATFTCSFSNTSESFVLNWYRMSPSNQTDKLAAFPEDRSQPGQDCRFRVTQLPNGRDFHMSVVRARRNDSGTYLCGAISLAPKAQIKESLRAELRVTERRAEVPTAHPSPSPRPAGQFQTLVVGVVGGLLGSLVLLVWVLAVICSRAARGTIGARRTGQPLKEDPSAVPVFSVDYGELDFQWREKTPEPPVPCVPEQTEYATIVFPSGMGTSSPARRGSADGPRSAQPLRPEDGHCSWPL

Row | EC50 [1] | MFI Maximum [1] | EC50 [2] | MFI Maximum [2] | EC50 [3] | OD Maximum [3] | IC50 [4] | Maximum inhibition rate (%) [4] | IC50 [5] | Maximum inhibition rate (%) [5] | EC50 [6] | Maximum (MFI) [6] | Binder
1 | 2.1 nM | 1.87e+06 | 2.86 nM | 34500 | 0.078 nM | 3.27 | 3.4 nM | 31.2% | 4.52 nM | 14% | – | – | B1
2 | 4.76 nM | 1.57e+06 | 2.04 nM | 38200 | 0.066 nM | 3.09 | 0.402 nM | 45.6% | 1.55 nM | 90.3% | – | – | B2
3 | 7.91 nM | 2.29e+06 | 6.91 nM | 36800 | 0.113 nM | 3.31 | 12.4 nM | 72% | 19.7 nM | 59.9% | – | – | B3
4 | 10.2 nM | 2.16e+06 | 8.34 nM | 39000 | 0.121 nM | 3.32 | 25.6 nM | 76% | – | – | – | – | B4
5 | – | – | 1.58 nM | 24800 | 0.102 nM | 3.31 | 0.437 nM | 40.2% | 3.38 nM | 80.1% | – | – | B5
6 | 1.94 nM | 2.35e+06 | 2.35 nM | 41200 | 0.074 nM | 3.24 | 0.769 nM | 66.7% | 1.83 nM | 92.7% | – | – | B6
7 | – | – | – | – | – | – | – | – | – | – | 4.73 nM | 3.08e+06 | B7
8 | – | – | – | – | – | – | – | – | – | – | 4.02 nM | 3.02e+06 | B8
9 | – | – | – | – | – | – | – | – | – | – | 3.91 nM | 2.82e+06 | B9
10 | – | – | – | – | – | – | – | – | – | – | 7.31 nM | 3.16e+06 | B10
11 | – | – | – | – | – | – | – | – | – | – | 8.62 nM | 3.3e+06 | B11
